This is an account of results in PMC10949841.

Experiment [1] deals with HAdV-C5 hexon (human adenovirus C5 (HAdV-C5)) (UniProt P04133). The experiment in a line: native MS; 0.5 µM hexon:hLF complex purified in buffer D, exchanged into and diluted with 20 mM ammonium acetate pH 7.0; nanoelectrospray, Orbitrap Q Exactive UHMR.
For experiment [2] the target is unchanged. The experiment in a line: native MS; 0.5 µM hexon:hLF complex purified in buffer D, exchanged into ammonium acetate pH 7.0 and diluted with water to 5.85 mM ammonium acetate; nanoelectrospray, Orbitrap Q Exactive UHMR.
For experiment [3] the target is unchanged. The experiment in a line: single-particle cryo-EM, 2D class averages; freshly purified hexon:hLF complex (1 mg/mL) on Au Quantifoil R1.2/1.3 grids, Talos Arctica; top and bottom views only, no 3D reconstruction; 2D classes used to refine a hybrid model.
Experiment [4] deals with HAdV-C5 hexon labeled with AlexaFluor594 (human adenovirus C5 (HAdV-C5)) (UniProt P04133). The experiment in a line: MST; hexon labeled with AlexaFluor594 at constant amount, 16 concentrations of hLF or hLF mutant (1:1 serial dilution); 20 mM HEPES pH 7.2, 5 mM NaCl, 0.05% Tween 20; 25°C; Monolith NT.115; n = 2.

Values joined by “and” are separate entries in the source; they are usually repeats but may differ in a detail not shown here. Identical values can stand only once. Where only a bound is given, the exact number is not on record here.

Sequence of HAdV-C5 hexon labeled with AlexaFluor594 (human adenovirus C5 (HAdV-C5)) (P04133 whole entry): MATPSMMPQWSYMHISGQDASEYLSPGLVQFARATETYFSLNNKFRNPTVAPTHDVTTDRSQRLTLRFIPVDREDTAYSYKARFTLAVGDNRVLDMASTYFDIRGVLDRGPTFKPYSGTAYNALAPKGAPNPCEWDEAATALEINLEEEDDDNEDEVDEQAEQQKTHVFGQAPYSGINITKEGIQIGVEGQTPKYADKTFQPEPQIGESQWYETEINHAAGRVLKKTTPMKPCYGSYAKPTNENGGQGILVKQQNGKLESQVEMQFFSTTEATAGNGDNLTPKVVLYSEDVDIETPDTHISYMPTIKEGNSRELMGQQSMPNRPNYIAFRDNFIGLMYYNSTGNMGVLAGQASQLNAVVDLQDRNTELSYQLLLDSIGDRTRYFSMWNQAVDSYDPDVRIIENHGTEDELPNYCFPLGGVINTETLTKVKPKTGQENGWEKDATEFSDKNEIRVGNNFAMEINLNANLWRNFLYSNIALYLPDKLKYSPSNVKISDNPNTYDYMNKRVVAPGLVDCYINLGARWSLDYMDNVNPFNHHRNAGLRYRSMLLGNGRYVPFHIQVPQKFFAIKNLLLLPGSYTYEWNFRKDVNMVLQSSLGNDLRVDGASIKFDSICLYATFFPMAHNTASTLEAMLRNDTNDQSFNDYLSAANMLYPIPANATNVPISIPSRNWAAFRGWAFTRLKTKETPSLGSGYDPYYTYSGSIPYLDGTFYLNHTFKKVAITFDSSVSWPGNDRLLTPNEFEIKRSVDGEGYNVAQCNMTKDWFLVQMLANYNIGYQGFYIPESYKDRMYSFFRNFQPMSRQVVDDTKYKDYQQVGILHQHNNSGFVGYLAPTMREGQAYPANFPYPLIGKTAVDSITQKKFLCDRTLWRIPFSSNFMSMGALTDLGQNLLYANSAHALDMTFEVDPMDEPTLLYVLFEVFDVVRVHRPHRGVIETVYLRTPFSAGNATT
Sequence of HAdV-C5 hexon (human adenovirus C5 (HAdV-C5)) (P04133 whole entry): as above

As to “human lactoferrin (hLF), wild type (natural protein)”, the stoichiometry N (hLF per hexon trimer) is 1 in experiment [1]; 1 and 2 in experiment [2]; 2 and 1 in experiment [3].

Substance “hLF mut7 (N673A/S678A) (natural protein)” displayed a reduction of binding affinity against WT hLF in experiment [4] of 40%.

As to “hLF mut5 (R24S/R27A/K28A/R30A) (natural protein)”, the affinity relative to WT hLF in experiment [4] was under 20%.

In experiment [4], “hLF mut8 (E687A/K691A) (natural protein)” gave a reduction of binding affinity against WT hLF of 70%.
